Reference: patent US20050020492A1 (MERCK, published 2005)
Read-outs that look alike come from different tables or passages of the source. Positions of bridges follow the written chain, without caps; N, C: chain ends. Non-standard residues stand in square brackets, D forms with d. Cha = N[C@@H](CC1CCCCC1)C(=O)O

Columns and labels:
human MCH-1R [1] = target: T1, human MCH-1R (human, UniProt Q99705 1-353); test: cell-based or functional assay
human MCH-2R [2] = target: T2, human MCH-2R (human, UniProt Q969V1 1-340); test: cell-based or functional assay
T2 sequence (Q969V1 whole entry): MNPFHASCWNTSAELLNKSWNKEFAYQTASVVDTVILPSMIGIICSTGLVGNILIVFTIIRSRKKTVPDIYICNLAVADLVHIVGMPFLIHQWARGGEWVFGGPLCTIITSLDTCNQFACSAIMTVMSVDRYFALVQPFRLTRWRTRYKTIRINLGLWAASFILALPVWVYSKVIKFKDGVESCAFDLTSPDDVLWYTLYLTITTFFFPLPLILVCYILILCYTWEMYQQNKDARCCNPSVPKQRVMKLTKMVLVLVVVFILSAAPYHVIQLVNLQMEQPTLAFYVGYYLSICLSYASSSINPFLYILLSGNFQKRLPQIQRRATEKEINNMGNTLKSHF

human MCH-2R [3] = target: T2, human MCH-2R; test: SPA, displacement of [125I]-[Phe13,Tyr19]-hMCH, MCH-2R membranes
Description: (§1) After equilibrating at room temperature for 3 hours, the plates were read in a TopCount (Packard, Meriden, Conn.). IC₅₀ calculations were performed using Prism 3.0 (GraphPad. Software, San Diego, Calif.). The IC₅₀ values were measured in three different experiments.

human MCH-1R [4] = target: T1, human MCH-1R; test: SPA, displacement of [125I]-[Phe13,Tyr19]-hMCH, CHO/MCH-1R membranes
Description: as §1

human MCH-1R [5] = target: T1, human MCH-1R; test: cell-based or functional assay; remark: listed apart in the source
human MCH-2R [6] = target: T2, human MCH-2R; test: cell-based or functional assay; remark: listed apart in the source
human MCH-1R [7] = target: T1, human MCH-1R; test: ratio of the two SPA IC50s
human MCH-2R [8] = target: T2, human MCH-2R; test: SPA, displacement of [125I]-[Phe13,Tyr19]-hMCH, MCH-2R membranes; remark: listed apart in the source
Description: as §1

T1 sequence (Q99705 whole entry): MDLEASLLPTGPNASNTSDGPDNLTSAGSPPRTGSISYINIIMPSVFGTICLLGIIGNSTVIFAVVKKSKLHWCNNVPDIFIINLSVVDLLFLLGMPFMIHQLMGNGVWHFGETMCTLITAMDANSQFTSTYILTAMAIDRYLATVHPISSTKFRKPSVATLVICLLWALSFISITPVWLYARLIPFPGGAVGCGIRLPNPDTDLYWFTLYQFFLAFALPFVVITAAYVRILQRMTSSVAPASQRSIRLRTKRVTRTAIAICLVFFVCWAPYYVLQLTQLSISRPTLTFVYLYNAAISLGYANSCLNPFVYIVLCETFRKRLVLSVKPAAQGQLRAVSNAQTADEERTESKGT

Row | Binder | Activation %, aequorin bioluminescence (human MCH-1R [1]) [%] | Activation %, aequorin bioluminescence (human MCH-2R [2]) [%] | EC50, aequorin bioluminescence (human MCH-1R [1]) [nM] | EC50, aequorin bioluminescence (human MCH-2R [2]) [nM] | IC50 (human MCH-2R [3]) [nM] | IC50 (human MCH-1R [4]) [nM] | Activation %, aequorin bioluminescence (human MCH-1R [5]) [%] | EC50, aequorin bioluminescence (human MCH-1R [5]) [nM] | Selectivity 2/1 (MCH-2R/MCH-1R EC50 activity ratio) (human MCH-1R [5]) [ratio] | Activation %, aequorin bioluminescence (human MCH-2R [6]) [%] | EC50, aequorin bioluminescence (human MCH-2R [6]) [nM] | Selectivity 2/1 (MCH-2R/MCH-1R IC50 ratio) (human MCH-1R [7]) [ratio] | IC50 (human MCH-2R [8]) [nM]
1 | XCMLGRVYRPC (position 6 is Gva, des-amino-arginine (5-guanidinovaleric acid), no acetyl; C-terminal amide; disulfide cycle) [SEQ. ID. NO. 3 (Gva^6 analog of Ac-hMCH(6-16)-NH2)] | 49 | 102 |  |  |  |  |  |  |  |  |  |  | 
2 | XCMLGRVYRPC (HELM PEPTIDE1{[ac].[dA].C.M.L.G.R.V.Y.R.P.C.[am]}$PEPTIDE1,PEPTIDE1,3:R3-12:R3$$$V2.0; SMILES CSCC[C@@H]1NC(=O)[C@@H](NC(=O)[C@@H](C)NC(C)=O)CSSC[C@@H](C(N)=O)NC(=O)[C@@H]2CCCN2C(=O)[C@H](CCCNC(=N)N)NC(=O)[C@H](Cc2ccc(O)cc2)NC(=O)[C@H](C(C)C)NC(=O)[C@H](CCCNC(=N)N)NC(=O)CNC(=O)[C@H](CC(C)C)NC1=O) [SEQ. ID. NO. 6 (Ac-D-Ala^6 analog of Ac-hMCH(6-16)-NH2)] | 109 | 51 | 160 | 4900 | 2700 | 0.77 |  |  |  |  |  |  | 
3 | Ac-RCMLFRVYRPC-NH2 (disulfide 2-11 (inferred)) [SEQ. ID. NO. 20 (Phe^10 analog of Ac-hMCH(6-16)-NH2)] |  |  |  |  |  | 0.1 | 75 | 66 | 0.75 | 88 | 50 | 19 | 1.9
4 | Ac-RCMLERVYRPC-NH2 (disulfide 2-11 (inferred), also called Glu^10 peptide) [SEQ. ID. NO. 28 (Glu^10 analog of Ac-hMCH(6-16)-NH2)] |  |  |  |  |  | 290 | 21 | > 10000 |  | 22 | > 10000 |  | 
5 | Ac-RCMLSRVYRPC-NH2 (disulfide 2-11 (inferred), also called Ser^10 peptide) [SEQ. ID. NO. 26 (Ser^10 analog of Ac-hMCH(6-16)-NH2)] |  |  |  |  |  | 0.54 | 120 | 130 | 0.7 | 87 | 89 | 100 | 55
6 | Ac-RCMLPRVYRPC-NH2 (disulfide 2-11 (inferred)) [SEQ. ID. NO. 22 (Pro^10 analog of Ac-hMCH(6-16)-NH2)] |  |  |  |  |  | 760 | 10 | > 10000 |  | 13 | > 10000 | 5 | 3500
7 | Ac-RCMLKRVYRPC-NH2 (disulfide 2-11 (inferred)) [SEQ. ID. NO. 24 (Lys^10 analog of Ac-hMCH(6-16)-NH2)] |  |  |  |  |  | 17 | 43 | 5700 | 1 | 40 | 6050 | 86 | 1460
8 | Ac-RCMLNRVYRPC-NH2 (disulfide 2-11 (inferred), also called Asn^10 peptide) [SEQ. ID. NO. 25 (Asn^10 analog of Ac-hMCH(6-16)-NH2)] |  |  |  |  |  | 0.28 | 126 | 51 | 4.7 | 86 | 240 | 1800 | 490
9 | Ac-RCMLRRVYRPC-NH2 (disulfide 2-11 (inferred)) [SEQ. ID. NO. 23 (Arg^10 analog of Ac-hMCH(6-16)-NH2)] |  |  |  |  |  | 640 | 7 | > 10000 |  | 38 | 1660 | 0.7 | 420
10 | XCMLGRVYRPC (N-terminal acetyl; D-Pro at position 6; C-terminal amide; disulfide cycle) [SEQ. ID. NO. 8 (Ac-D-Pro^6 analog of Ac-hMCH(6-16)-NH2)] | 120 |  |  |  |  |  |  |  |  |  |  |  | 
11 | XCMLGRVYRPC (N-terminal acetyl; D-Arg at position 6; C-terminal amide; disulfide cycle) [SEQ. ID. NO. 5 (Ac-D-Arg^6 analog of Ac-hMCH(6-16)-NH2)] | 97 |  |  |  |  |  |  |  |  |  |  |  | 
12 | Ac-RCML[Cha]RVYRPC-NH2 (disulfide 2-11) [SEQ. ID. NO. 19 (Cha^10 analog of Ac-hMCH(6-16)-NH2)] |  |  |  |  |  | 5 | 76 | 1200 | 0.25 | 74 | 300 | 11 | 55
13 | XCMLGRVYRPC (N-terminal acetyl; D-Nle (D-norleucine) at position 6; C-terminal amide; disulfide cycle) [SEQ. ID. NO. 7 (Ac-D-Nle^6 analog of Ac-hMCH(6-16)-NH2)] | 115 | 69 |  |  | 1460 |  |  |  |  |  |  |  | 
14 | XCMLGRVYRPC (not fully specified; N-terminal acetyl; D-Glu at position 6; C-terminal amide; disulfide cycle) [SEQ. ID. NO. 12 (Ac-D-Glu^6 analog of Ac-hMCH(6-16)-NH2)] | 100 | 20 |  |  |  |  |  |  |  |  |  |  | 
15 | XCMLGRVYRPC (N-terminal acetyl; D-Asn at position 6; C-terminal amide; disulfide cycle) [SEQ. ID. NO. 10 (Ac-D-Asn^6 analog of Ac-hMCH(6-16)-NH2)] | 113 | 42 | 260 |  |  |  |  |  |  |  |  |  | 
16 | RCMLXRVYRPC (HELM PEPTIDE1{[ac].R.C.M.L.[Cit].R.V.Y.R.P.C.[am]}$PEPTIDE1,PEPTIDE1,3:R3-12:R3$$$V2.0; SMILES CSCC[C@@H]1NC(=O)[C@@H](NC(=O)[C@H](CCCNC(=N)N)NC(C)=O)CSSC[C@@H](C(N)=O)NC(=O)[C@@H]2CCCN2C(=O)[C@H](CCCNC(=N)N)NC(=O)[C@H](Cc2ccc(O)cc2)NC(=O)[C@H](C(C)C)NC(=O)[C@H](CCCNC(=N)N)NC(=O)[C@H](CCCNC(N)=O)NC(=O)[C@H](CC(C)C)NC1=O, also called Cit^10 peptide) [SEQ. ID. NO. 27 (Cit^10 analog of Ac-hMCH(6-16)-NH2)] |  |  |  |  |  | 3.1 | 91 | 920 | 0.3 | 68 | 310 | 42 | 130
17 | XCMLGRVYRPC (D-Arg at position 6, no acetyl; C-terminal amide; disulfide cycle) [SEQ. ID. NO. 4 (D-Arg^6 analog lacking an Ac group)] | 130 |  | 107 | 55 | 47 | 0.35 |  |  |  |  |  |  | 
18 | RCMLXRVYRPC (N-terminal acetyl; Nle (norleucine) at position 10; C-terminal amide; disulfide cycle) [SEQ. ID. NO. 18 (Nle^10 analog of Ac-hMCH(6-16)-NH2)] |  |  |  |  |  | 0.1 | 115 |  | 0.4 | 97 |  | 21 | 1.9
19 | RCMLXRVYRPC (HELM PEPTIDE1{[ac].R.C.M.L.[O=C([C@H](Cc1ccc2ccccc2c1)N[*:1])[*:2]].R.V.Y.R.P.C.[am]}$PEPTIDE1,PEPTIDE1,3:R3-12:R3$$$V2.0; SMILES CSCC[C@@H]1NC(=O)[C@@H](NC(=O)[C@H](CCCNC(=N)N)NC(C)=O)CSSC[C@@H](C(N)=O)NC(=O)[C@@H]2CCCN2C(=O)[C@H](CCCNC(=N)N)NC(=O)[C@H](Cc2ccc(O)cc2)NC(=O)[C@H](C(C)C)NC(=O)[C@H](CCCNC(=N)N)NC(=O)[C@H](Cc2ccc3ccccc3c2)NC(=O)[C@H](CC(C)C)NC1=O) [SEQ. ID. NO. 21 (Nal(2′)^10 analog of Ac-hMCH(6-16)-NH2)] |  |  |  |  |  | 1.3 | 7 | > 10000 |  | 105 | 81 | 14 | 18
20 | XCMLGRVYRPC (N-terminal acetyl; D-Ser at position 6; C-terminal amide; disulfide cycle) [SEQ. ID. NO. 11 (Ac-D-Ser^6 analog of Ac-hMCH(6-16)-NH2)] | 114 | 39 | 160 |  |  |  |  |  |  |  |  |  | 
